The numbers were not newly measured in publication PMC4850115, which cites them from elsewhere.

The data set concerns the target p38 (Homo sapiens) (UniProt Q16539).
Sequence of UniProt Q16539 (Q16539 2-360): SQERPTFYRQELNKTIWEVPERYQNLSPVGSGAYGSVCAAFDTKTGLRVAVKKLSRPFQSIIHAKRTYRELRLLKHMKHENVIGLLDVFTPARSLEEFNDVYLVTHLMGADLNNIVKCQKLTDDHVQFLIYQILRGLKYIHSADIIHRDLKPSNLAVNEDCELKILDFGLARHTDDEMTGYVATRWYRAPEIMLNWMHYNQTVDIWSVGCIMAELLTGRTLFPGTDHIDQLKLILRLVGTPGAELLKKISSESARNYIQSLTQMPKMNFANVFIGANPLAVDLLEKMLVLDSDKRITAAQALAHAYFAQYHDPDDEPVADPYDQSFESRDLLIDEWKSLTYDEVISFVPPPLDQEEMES

For the substance MK2 370-400 (from UniProt P49137), the Kd was 20 nM.

For orientation: Kd means a measure of binding affinity in units of concentration.
